From patent publication US20060177441A1 (Genentech, published 2006)

T1: mpl-Ig (UniProt P40238 26-491)
T1 construct: Used as conditioned medium of mpl-Ig-transfected 293 cells, captured on anti-human IgG Fc plates; also called Mpl (Mpl/TPO ELISA); not shown: Ig part, captured by rabbit anti-human IgG Fc
T1 sequence (looked up): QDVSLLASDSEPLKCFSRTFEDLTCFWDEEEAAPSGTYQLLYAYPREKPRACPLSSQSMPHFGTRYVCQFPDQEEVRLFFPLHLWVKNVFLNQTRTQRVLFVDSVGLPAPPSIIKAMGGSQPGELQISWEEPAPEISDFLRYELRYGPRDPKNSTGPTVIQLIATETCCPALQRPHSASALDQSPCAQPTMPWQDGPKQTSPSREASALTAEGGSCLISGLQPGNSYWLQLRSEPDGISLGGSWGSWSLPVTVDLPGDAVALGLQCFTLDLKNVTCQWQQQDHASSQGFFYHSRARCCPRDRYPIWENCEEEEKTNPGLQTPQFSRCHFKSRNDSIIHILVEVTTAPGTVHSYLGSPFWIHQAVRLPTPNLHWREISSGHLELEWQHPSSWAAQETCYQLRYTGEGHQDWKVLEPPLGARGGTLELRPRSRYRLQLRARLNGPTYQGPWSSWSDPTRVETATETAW

T2: c-mpl (thrombopoietin receptor) on HU-03 cells, human platelets or human cord blood cells (human, UniProt P40238 26-635)
T2 construct: whole, on cells; also called mpl receptor; TPO receptor
T2 sequence (looked up): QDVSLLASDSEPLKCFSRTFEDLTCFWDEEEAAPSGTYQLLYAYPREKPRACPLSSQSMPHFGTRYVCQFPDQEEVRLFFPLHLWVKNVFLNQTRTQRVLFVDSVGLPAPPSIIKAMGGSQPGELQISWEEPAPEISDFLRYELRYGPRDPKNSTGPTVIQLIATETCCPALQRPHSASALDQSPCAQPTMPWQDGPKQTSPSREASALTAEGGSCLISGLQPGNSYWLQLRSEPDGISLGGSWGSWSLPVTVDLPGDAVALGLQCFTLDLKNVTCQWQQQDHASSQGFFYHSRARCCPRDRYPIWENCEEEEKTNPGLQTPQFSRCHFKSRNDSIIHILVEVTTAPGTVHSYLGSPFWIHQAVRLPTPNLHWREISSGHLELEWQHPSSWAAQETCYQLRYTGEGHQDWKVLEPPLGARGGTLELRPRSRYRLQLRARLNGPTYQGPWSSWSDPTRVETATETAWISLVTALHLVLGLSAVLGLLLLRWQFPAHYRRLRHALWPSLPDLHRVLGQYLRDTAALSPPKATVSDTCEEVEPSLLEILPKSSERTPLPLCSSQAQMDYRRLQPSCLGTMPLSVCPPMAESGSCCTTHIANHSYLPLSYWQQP

B1: 12B5 IgG (antibody, from another filing)
scFv: QVQLVQSGGGLVRPGGSLSLSCAVSGITLRTYGMHWVRQAPGKGLEWVAGISFDGRSEYYADSVQGRFTISRDSSKNTLYLQMNSLRAEDTAVYYCARGAHYGFDIWGQGTMVTVSSGGGGTGGGGSGGGGSDIQMTQSPSTLSASIGDRVTITCRASEGIYHWLAWYQQKPGKAPKLLIYKASSLASGAPSRFSGSGSGTDFTLTISSLQPDDFATYYCQQYSNYPLTFGGGTKLEIK
B2: 12E10 Fab (Fab, V domains shown)
VH: QVQLQQSGPGLVKPSETLSLTCTVSGDSISSYYWSWIRQPPGKGLEWIGYIYYSGSTNYNPSLKSRVTISVDTSKSQFSLKLSSVTAADTAVYYCARGRYFDVWGRGTMVTVSS
VL: SYVLTQPPSVSGSPGQSITISCTGTSSDVGGYNYVSWYQQHPGKAPKLMIYEGSKRPSGVSNRFSGSKSGNTASLTISGLQAEDEADYYCSSYTTRSTRVFGGGTKLTVL
notes: Monovalent Fab′ from E. coli: human IgG1 CH1 ending thr-ala-ala-pro, human kappa1 CL (pXCA730) or human lambda CL (pXCA970)
B3: 12E10 Fab′2 (other)
VH: B2 VH
VL: B2 VL
notes: F(ab′)2 with leucine zipper, expressed in E. coli from pXCA740; copies: 2 + 2
B4: 12E10 IgG (antibody, V domains shown)
VH: B2 VH
VL: B2 VL
notes: Full length antibody with human IgG1 CH1, CH2 and CH3 domains, expressed in 293 or CHO cells; also called full length human antibody derivative of 12E10

Experiments:
mpl-Ig = biological target: T1, mpl-Ig; test: Mpl/TPO ELISA: inhibition of biotinylated TPO binding to captured mpl-Ig
[1] = biological target: mpl-Rse.gD chimeric receptor (human) (UniProt P40238); test: cell-based or functional assay
[2] = biological target: c-mpl (thrombopoietin receptor) on HU-03 cells, human platelets or human cord blood cells (human) (UniProt P40238); test: cell-based or functional assay
[3] = biological target: c-mpl (thrombopoietin receptor) on HU-03 cells, human platelets or human cord blood cells (human) (UniProt P40238); test: Platelets: competition with 125I-TPO (100 pM) on human platelets
[4] = biological target: c-mpl (thrombopoietin receptor) on HU-03 cells, human platelets or human cord blood cells (human) (UniProt P40238); test: Hu3 Binding: competition with 125I-TPO (100 pM) on HU-03 cells
[5] = biological target: T2, c-mpl (thrombopoietin receptor) on …; test: as above
Procedure: (§1) HU-03 cells were agitated during the incubation period to keep them in suspension. The reaction mixture was overlayed on 1 ml 20% sucrose-HBSSB and microcentrifuged at 13,500 rpm for five minutes. The supernatants were aspirated, tube bottoms containing the cell pellets were cut off, and cell- or platelet-associated radioactivity was measured with an Iso Data Model 120 gamma counter.

[6] = biological target: T2, c-mpl (thrombopoietin receptor) on …; test: Platelets: competition with 125I-TPO (100 pM) on human platelets
Procedure: as §1

| Binder | IC50 (mpl-Ig) | KIRA (ED50) [1] | Hu3 Proliferation (ED50) [2] | IC50 [3] | IC50 [4] | IC50 [5] | IC50 [6] |
| --- | --- | --- | --- | --- | --- | --- | --- |
| B1 | 0.152 nM | 0.4 nM | 0.03 nM | 300 nM | 10 nM |  |  |
| B2 | 180 nM |  |  |  |  | 500 nM |  |
| B3 | 640 nM |  |  |  |  | 10 nM | 500 nM |
| B4 | 0.45 nM |  |  |  |  | 50 nM | 500 nM |
